Experimental data reported in US20240376170A1 (BRIGHT PEAK THERAPEUTICS, published 2024).
Bridges are numbered along the chain shown (N, C = ends). Primed or numbered codes have the meaning given here. [ ]: non-standard residue; d: D form. Ygp = O-(8x polyethylene glycol-amino)-tyrosine (Tyr, amino-capped PEG8); Yn3 = O-(9x polyethylene glycol-azido)-tyrosine (Tyr, azide-capped PEG9); Ygp″ = O-(8x polyethylene glycol-amino)-tyrosine; Yn3″ = O-(9x polyethylene glycol-azido)-tyrosine; hSer = N[C@@H](CCO)C(=O)O; Nle = CCCC[C@H](N)C(=O)O

Assays:
[1] = target: T1, recombinant human IL-2 receptor beta containing a His-tag and Avi-tag (human, UniProt P14784 27-239); assay: BLI (Octet R8), receptor on SAX2 sensor
T1 construct: Bought; attached to the SAX2 biosensor; also called CD122; IL-2R β; not shown: His-tag and Avi-tag
T1 sequence (looked up): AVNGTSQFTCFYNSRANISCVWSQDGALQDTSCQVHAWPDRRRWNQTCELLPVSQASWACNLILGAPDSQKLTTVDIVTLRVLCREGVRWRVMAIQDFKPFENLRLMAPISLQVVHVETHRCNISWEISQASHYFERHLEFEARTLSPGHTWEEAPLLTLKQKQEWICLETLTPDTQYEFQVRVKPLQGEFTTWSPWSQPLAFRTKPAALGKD
In short: (§1)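 Receptor immobilized on SAX2 biosensors; analytes (intact or MMP2-cleaved activatable IL-2 constructs) started at 300 nM and serially diluted in Kinetic buffer or PBS with 0.02% Tween 20 and 0.1% BSA. Binding constants measured by biolayer interferometry; sensors regenerated with 10 mM glycine pH 2.7 between runs.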

[2] = target: T1, recombinant human IL-2 receptor beta …; assay: BLI (Octet R8), receptor on SAX2 sensor; construct CMP-165, intact (no MMP2)
Description: (§2) Bilayer interferometry (BLI) assays were used to measure the binding constants between activatable IL-2 polypeptides (and activated versions thereof) to IL-2 receptor subunits or receptor complexes. BLI assays were conducted on an Octet® R8 instrument. Assay plates were 96 well, polypropylene, F-bottom (chimney well), black microplates (Greiner Bio-one, Cat. No: 655209). The biosensors were Octet® SAX2 (Sartorius, Cat. No: 18-5136). The assay buffer was 1X Kinetic Buffer (Sartorius, Cat. no: 18-5136) or Phosphate Buffered Saline (PBS) that contained 0.02% (v: v) Tween 20 (Polysorbate 20) and 0.1% (w/v) bovine serum albumin (BSA). The sensor was regenerated between measurements in 10 mM glycine pH 2.7 buffer.
(§3) Sensor attached receptors were either recombinant human IL-2 receptor beta containing a His-tag and Avi-tag™ (R&D Systems™) or an Avi-tag™ Fc with human IL-2R beta and IL-2R gamma attached (Acrobiosystems Cat. no: ACRB-ILG-H₈₂F3-25UG). Receptors were reconstituted from lyophilized powder to 500 μg/ml in PBS. Analytes were diluted in Kinetic buffer to 300 nM, then serially diluted to lower concentrations.

[3] = target: T2, Avi-tag Fc with human IL-2R beta and IL-2R gamma attached (Acrobiosystems ACRB-ILG-H82F3-25UG) (human, UniProt P14784 27-239; P31785 23-262); assay: as above
T2 construct: Bought; attached to the SAX2 biosensor; also called CD122 CD132; IL-2R βγ; not shown: Fc and Avi-tag
T2 sequence (looked up) 1: T1 sequence (looked up)
T2 sequence (looked up) 2: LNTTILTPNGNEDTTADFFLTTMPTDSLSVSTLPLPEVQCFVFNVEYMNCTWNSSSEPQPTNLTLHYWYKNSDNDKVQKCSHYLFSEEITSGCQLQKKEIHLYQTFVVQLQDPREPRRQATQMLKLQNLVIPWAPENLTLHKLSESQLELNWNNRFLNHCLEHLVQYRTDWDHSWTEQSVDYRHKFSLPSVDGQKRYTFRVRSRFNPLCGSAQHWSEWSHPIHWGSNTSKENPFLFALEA
Description: as §2, §3

[4] = target: T2, Avi-tag Fc with human IL-2R beta and …; assay: BLI (Octet R8), receptor on SAX2 sensor
In short: as §1

[5] = target: T1, recombinant human IL-2 receptor beta …; assay: BLI (Octet R8), receptor on SAX2 sensor; CMP-166 treated with MMP2 (cleaved)
Description: as §2, §3

[6] = target: T2, Avi-tag Fc with human IL-2R beta and …; assay: as above
Description: as §2, §3

[7] = target: T1, recombinant human IL-2 receptor beta …; assay: BLI (Octet R8), receptor on SAX2 sensor; CMP-167 treated with MMP2 (cleaved)
Description: as §2, §3

[8] = target: T2, Avi-tag Fc with human IL-2R beta and …; assay: as above
Description: as §2, §3

[9] = target: T1, recombinant human IL-2 receptor beta …; assay: BLI (Octet R8), receptor on SAX2 sensor; construct CMP-166, intact (no MMP2)
Description: as §2, §3

[10] = target: T2, Avi-tag Fc with human IL-2R beta and …; assay: as above
Description: as §2, §3

[11] = target: T1, recombinant human IL-2 receptor beta …; assay: BLI (Octet R8), receptor on SAX2 sensor; construct CMP-168, intact (no MMP2)
Description: as §2, §3

[12] = target: T1, recombinant human IL-2 receptor beta …; assay: BLI (Octet R8), receptor on SAX2 sensor; CMP-168 treated with MMP2 (cleaved)
Description: as §2, §3

[13] = target: T1, recombinant human IL-2 receptor beta …; assay: BLI (Octet R8), receptor on SAX2 sensor; CMP-165 treated with MMP2 (cleaved)
Description: as §2, §3

[14] = target: T2, Avi-tag Fc with human IL-2R beta and …; assay: as above
Description: as §2, §3

[15] = target: T1, recombinant human IL-2 receptor beta …; assay: BLI (Octet R8), receptor on SAX2 sensor; construct CMP-167, intact (no MMP2)
Description: as §2, §3

[16] = target: T2, Avi-tag Fc with human IL-2R beta and …; assay: as above
Description: as §2, §3

B1: CMP-165 (ligand)
chain: APTSSSTKKTQLQLEHLLLDLQKILNGINNYKNPKLTR[Nle]L[hSer][Yn3]KF[Ygp][Nle]PKKATELKHLQCLEEELKPLEEVL[hSer]LAQSKNFHLRPRDLISNINVIVLELKGSETTF[hSer]CEYADETATIVEFLNRWITFSQSIISTLT
modifications: bridge N-23; not fully specified (bridges); ends not checked; also: sequence of the cleavable peptide in the bridge not given here
In the case of B1, the koff [1] is reported as 0.633 s⁻¹, the Kd [2] is reported as 44.2 µM and the Kd [3] is reported as 0.0261 nM.

B2: CMP-166, MMP2 cleaved (ligand)
chain: APTSSSTKKTQLQLEHLLLDLQKILNGINNYKNPKLTR[Nle]L[hSer][Yn3]KF[Ygp][Nle]PKKATELKHLQCLEEELKPLEEVL[hSer]LAQSKNFHLRPRDLISNINVIVLELKGSETTF[hSer]CEYADETATIVEFLNRWITFSQSIISTLT
modifications: also: glutaryl-PEG4-peptide bridge Ala1 to Lys23 cut by MMP2, site not given here, ring opened
notes: Tested after MMP2 treatment
With B2 the koff [1] was 0.225 s⁻¹, the kon [1] was 283000 M⁻¹ s⁻¹ and the koff [4] was 0.000684 s⁻¹. For the same binder, the kon [4] was 567000 M⁻¹ s⁻¹, the Kd [5] was 0.794 µM and the Kd [6] was 0.00121 µM.

B3: CMP-167, MMP2 cleaved (ligand)
chain: APTSSSTKKTQLQLEHLLLDLQKILNGINNYKNPKLTR[Nle]L[hSer][Yn3″]KF[Ygp″][Nle]PKKATELKHLQCLEEELKPLEEVL[hSer]LAQSKNFHLRPRDLISNINVIVLELKGSETTF[hSer]CEYADETATIVEFLNRWITFSQSIISTLT
modifications: ends and bridges not checked; also: MMP2 cleaved, ring opened, cut site and remnants not given here
notes: Tested after MMP2 treatment
B3 was tested, and the koff [1] was 0.227 s⁻¹, the kon [1] was 345000 M⁻¹ s⁻¹ and the koff [4] was 0.000923 s⁻¹. It also gave a kon [4] of 594000 M⁻¹ s⁻¹, a Kd [7] of 0.658 µM and a Kd [8] of 0.00155 µM.

B4: CMP-166 (ligand)
chain: APTSSSTKKTQLQLEHLLLDLQKILNGINNYKNPKLTR[Nle]L[hSer][Yn3]KF[Ygp][Nle]PKKATELKHLQCLEEELKPLEEVL[hSer]LAQSKNFHLRPRDLISNINVIVLELKGSETTF[hSer]CEYADETATIVEFLNRWITFSQSIISTLT
modifications: bridge N-23; not fully specified (bridges); ends not checked; also: sequence of the cleavable peptide in the bridge not given here
For B4, the koff [1] was 0.613 s⁻¹, the Kd [9] was 0.614 µM and the Kd [10] was 0.0161 µM.

B5: CMP-168 (ligand)
chain: APTSSSTKKTQLQLEHLLLDLQEILNGINNYKNPKLTR[Nle]L[hSer][Yn3″]KF[Ygp″][Nle]PKKATELKHLQCLEEELKPLEEVL[hSer]LAQSKNFHLRPRDLISNINVIVLELKGSETTF[hSer]CEYADETATIVEFLNRWITFSQSIISTLT
modifications: bridge 9-23; not fully specified (bridges); ends not checked
B5 was tested, and the koff [4] was 0.0022 s⁻¹ and the Kd [11] was 25.1 µM.

B6: CMP-168, MMP2 cleaved (ligand)
chain: APTSSSTKKTQLQLEHLLLDLQEILNGINNYKNPKLTR[Nle]L[hSer][Yn3″]KF[Ygp″][Nle]PKKATELKHLQCLEEELKPLEEVL[hSer]LAQSKNFHLRPRDLISNINVIVLELKGSETTF[hSer]CEYADETATIVEFLNRWITFSQSIISTLT
modifications: ends and bridges not checked; also: MMP2 cleaved, ring opened, cut site and remnants not given here
notes: Tested after MMP2 treatment
Work on B6 yielded a koff [1] of 1.08 s⁻¹, a kon [1] of 789 M⁻¹ s⁻¹ and a Kd [4] of 0.00227 µM. The koff [4] was 0.00164 s⁻¹, the kon [4] was 602000 M⁻¹ s⁻¹ and the Kd [12] was 1370 µM.

B7: CMP-165, MMP2 cleaved (ligand)
chain: APTSSSTKKTQLQLEHLLLDLQKILNGINNYKNPKLTR[Nle]L[hSer][Yn3]KF[Ygp][Nle]PKKATELKHLQCLEEELKPLEEVL[hSer]LAQSKNFHLRPRDLISNINVIVLELKGSETTF[hSer]CEYADETATIVEFLNRWITFSQSIISTLT
modifications: also: glutaryl-peptide bridge Ala1 to Lys23 cut by MMP2, site not given here, ring opened
notes: Tested after MMP2 treatment
With B7 the koff [1] was 0.237 s⁻¹, the kon [1] was 213000 M⁻¹ s⁻¹ and the koff [4] was 0.00114 s⁻¹. It also gave a kon [4] of 608000 M⁻¹ s⁻¹, a Kd [13] of 1.11 µM and a Kd [14] of 0.00187 µM.

B8: CMP-167 (ligand)
chain: APTSSSTKKTQLQLEHLLLDLQKILNGINNYKNPKLTR[Nle]L[hSer][Yn3]KF[Ygp][Nle]PKKATELKHLQCLEEELKPLEEVL[hSer]LAQSKNFHLRPRDLISNINVIVLELKGSETTF[hSer]CEYADETATIVEFLNRWITFSQSIISTLT
modifications: bridge N-23; not fully specified (bridges); ends not checked
B8 gave a koff [1] of 0.993 s⁻¹, a Kd [15] of 0.215 µM and a Kd [16] of 0.0238 µM.
